# Where no end group is shown, it is not given here.
# B1: synthetic aa1–11 peptide (peptide)
# peptide: MVLVIEIIRKH-NH2
# notes: MthK K+ channel of Methanobacterium thermoautotrophicum, N-terminal residues 1-11; source: synthetic peptide (Celtek Peptides)
# Target: Isolated RCK domain (M107-A336) of MthK, preparation for NMR (from pQE70-MthK) (Methanobacterium thermoautotrophicum, UniProt O27564 107-336)
# Test: NMR titration; 700-MHz 1H NMR, 25 °C; isolated RCK titrated with synthetic peptide at [peptide]:[RCK] 0:1, 1:5, 1:2, 1:1 and 1:0; 20 mM Tris-HCl (pH 7.5), 150 mM KCl, 1 mM DTT; RCK concentrated to approximately 200 μM; disappearance of the peptide's His11 and Met1 peaks followed
# Conditions: both partners purified
binder,measurement,value
B1,binding result,binds

# — PMC2573919, “The Desensitization Gating of the MthK K^+ Channel Is Governed by Its Cytoplasmic Amino Terminus” (PLoS Biology, 2008)
